Earlier results, collected in publication PMC6800417.

Target: EGFR (Homo sapiens) (UniProt P00533)

For 111In-DTPA-hEGF (from UniProt P01133), the Kd is listed as 1.3 nM.
